B1: CPEB3 Ribozyme (parent)
chain: UAACAGGGGGCCACAGCAGAAGCGUUCACGUCGCAGCCCCUGUCAGAUUCUGGUGAAUCUGCGAAUUCUGCUGUAUAUCUC

Variants of: B1
Assay: self-cleavage, relative activity (ratio to wild type); higher = more cleavage; in vitro, sequencing
Outline: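 Relative activity was defined as the cleaved/total read fraction for a variant divided by the same fraction for the unmutated ribozyme. CPEB3 self-cleaving ribozyme libraries were made by rounds of error-prone PCR, barcoded, and transcribed in vitro with T7 RNA polymerase for 5 hours at 37°C, and cleavage ran through transcription plus a 15 min DNase I step before EDTA. Illumina sequencing of template-switched reverse transcripts gave the reads, and DNA sequencing mapped the barcodes. Averages come from three batches, using variants with at least 5 reads.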

In order of falling self-cleavage:
1. C17U A35G  1.26
2. C17U G73A  1.09
3. C17G A35G  1.04
4. C17U U43A  0.98
5. C17U A75U  0.81
6. C17U  0.73
7. G16U U80C  0.7
8. C17U A77G  0.69
9. C17A G53A  0.68
10. C17U G53C  0.66
11. C17U A45G  0.65
12. C17G U51C  0.6
13. C17U U26A  0.6
14. G16U U74C  0.58
15. C17U A65U  0.55
16. G16U U54G  0.55
17. C17G U54A  0.54
18. G16C U51G  0.52
19. G16U U80A  0.52
20. C17U A64G  0.52
21. C17G A75U  0.52
22. C17U C68U  0.51
23. C17U A28C  0.51
24. C17G A57G  0.51
25. C17U A57G  0.51
26. C17A A35G  0.49
27. C17G U78C  0.48
28. C17A A18G  0.48
29. C17A U25G  0.47
30. C17U A56G  0.47
31. G16C U54C  0.46
32. G16U C39U  0.46
33. C17G G53C  0.45
34. C17U A20G  0.45
35. C17A U67C  0.44
36. C17A A47U  0.44
37. C17U U31C  0.42
38. G16U  0.42
39. G16C U67C  0.42
40. G16C U76C  0.41
41. C17U A28U  0.41
42. G16U U41C  0.41
43. C17G A18U  0.4
44. C17U C38A  0.39
45. C17G A56G  0.38
46. G16C U74A  0.38
47. C17U G55A  0.38
48. G16U G36A  0.37
49. C17G U80A  0.37
50. C17U U41G  0.37
51. C17A U26A  0.36
52. C17U A28G  0.36
53. C17G C34G  0.36
54. C17G A64G  0.35
55. G16U C81U  0.35
56. C17G  0.35
57. C17A A57G  0.34
58. G16U U76A  0.33
59. C17U A47U  0.33
60. C17U U41C  0.32
61. G16U G33A  0.32
62. G16U A47G  0.32
63. C17A U43C  0.32
64. C17U A21G  0.32
65. C17A  0.32
66. C17G A35U  0.32
67. C17G U72C  0.31
68. C17U A64U  0.3
69. G16C U72A  0.3
70. C17A A20G  0.3
71. G16C U60A  0.29
72. G16U A18G  0.29
73. C17G U26A  0.29
74. C17U U26C  0.29
75. G16U A56G  0.28
76. C17G U31C  0.28
77. C17G A47G  0.28
78. C17A A47G  0.28
79. C17G C79U  0.27
80. G16U U78C  0.27
81. C17G C32U  0.27
82. C17U G61U  0.27
83. C17U U25A  0.27
84. G16U U26A  0.26
85. G16U A57G  0.26
86. C17A U60A  0.26
87. G16U A28U  0.26
88. C17G U60G  0.25
89. C17G U41A  0.25
90. G16C U74C  0.25
91. C17A A21G  0.25
92. C17G A65G  0.25
93. C17U U25C  0.25
94. C17G G33A  0.24
95. G16U U26C  0.24
96. C17U U41A  0.24
97. C17A U80C  0.24
98. C17A A64G  0.24
99. C17G C32G  0.23
100. G16U A35U  0.23
101. C17U A18G  0.23
102. C17U G46U  0.23
103. C17A U80G  0.23
104. C17A A28G  0.22
105. G16U U69A  0.22
106. C17A A45U  0.22
107. C17G U58C  0.22
108. C17U A56U  0.22
109. G16C U78C  0.22
110. C17G U72A  0.21
111. G16U U60G  0.21
112. C17A U78C  0.21
113. G16U A45U  0.21
114. G16U A45G  0.21
115. C17G A28C  0.21
116. C17U C40U  0.21
117. C17A U25C  0.2
118. G16U C32A  0.2
119. G16C U60C  0.2
120. G16U U25A  0.2
121. C17G U48C  0.2
122. C17A A75U  0.2
123. C17G U60A  0.19
124. G16U G24A  0.19
125. G16U U67A  0.19
126. C17A U49C  0.19
127. G16U U31C  0.19
128. C17G A65U  0.19
129. C17A U60C  0.18
130. G16U A28G  0.18
131. G16U G61A  0.18
132. C17A C62G  0.17
133. C17G A64U  0.17
134. C17U G36A  0.17
135. G16U C23U  0.16
136. C17U C34A  0.16
137. C17G U26C  0.16
138. G16U A47U  0.16
139. C17A U72G  0.16
140. G16C U66C  0.16
141. C17G A28G  0.16
142. C17A A65U  0.15
143. G16U U43C  0.15
144. C17U C71A  0.15
145. C17A U31A  0.15
146. G16U U49G  0.14
147. G16U U69C  0.13
148. C17U A21C  0.12
149. G16C U51A  0.11
150. G16U G24U  0.11
151. C17G U25C  0.11
152. C17U C62A  0.11
153. C17U G24C  0.11
154. C17A A18U  0.11
155. C17G A18G  0.11
156. G16U U49C  0.1
157. C17A U41A  0.1
158. G16U U67C  0.09
159. G16U G33C  0.09
160. C17G U25A  0.09
161. C17U C37A  0.09
162. C17U G30U  0.09
163. C17U U26G  0.09
164. C17G U41G  0.08
165. C17A U66C  0.07
166. C17G U49C  0.06
167. C17G U25G  0.06
